Experimental data published in doi:10.1101/2021.07.16.452612.

Target: Recombinant wild-type mouse talin1 fragment R11 (residues 1,974–2,140) (mouse) (UniProt P26039)
Test: ITC

UniProt P26039, sequence (P26039 1974-2140): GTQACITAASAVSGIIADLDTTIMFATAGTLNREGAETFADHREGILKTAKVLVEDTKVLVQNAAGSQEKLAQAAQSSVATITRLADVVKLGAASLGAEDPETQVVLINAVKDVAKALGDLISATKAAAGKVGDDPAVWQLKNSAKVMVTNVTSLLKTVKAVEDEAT

tensin3 H1 peptide (from UniProt Q68CZ2 692-712)
Kd: 17 µM
dH: 4.8 kcal/mol
